Here are results for one substance from article doi:10.64898/2025.12.29.696898.

The test deals with GFP-EBP2 (human) (UniProt Q99848). Briefly: FRET or BRET.
UniProt Q99848, sequence (Q99848 whole entry): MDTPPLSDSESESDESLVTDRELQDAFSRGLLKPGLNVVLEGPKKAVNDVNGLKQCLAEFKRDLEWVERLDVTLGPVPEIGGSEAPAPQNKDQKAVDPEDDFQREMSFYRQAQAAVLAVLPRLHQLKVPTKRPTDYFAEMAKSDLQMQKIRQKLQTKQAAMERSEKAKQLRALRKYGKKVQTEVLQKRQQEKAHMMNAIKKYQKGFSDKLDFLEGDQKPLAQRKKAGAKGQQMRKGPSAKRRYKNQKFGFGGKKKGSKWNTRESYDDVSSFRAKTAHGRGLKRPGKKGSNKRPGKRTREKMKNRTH

Consider “EBNA-1-DsRed (from UniProt P03211 1-641) (natural protein)”, for which the mean fluorescence intensity at 588 nm resulting from FRET was 167 and the mean ratio of fluorescence intensity (FI 588 nm/ FI 588 nm + FI 513 nm) was 0.4.
